Changes are numbered by the printed parent chain.
B1: H1: humanized anti-IGLV3-21^R110 CAR, VL SEQ ID NO: 7, VH SEQ ID NO: 11, scFv SEQ ID NO: 13 (protein)
scFv: EIVLTQSPSSLSASVGDSVTITCRASGNIHSYLAWYQQKPGKAPKLLIYNAKTLADGVPSRFSGSGSGTQYTLTISSLQPEDFATYYCQHFWNTPPTFGAGTKLELKGGGGSGGGGSGGGGSGGGGSQVQLQESGPGLVKPSETLSLTCTVSGFSLTSYGIHWIRQSPGRGLEWIGVIWRGGGTDSNAAFMSRVTISVDTSKSQVSLKLGSVTAADTAIYYCARSRYDEEESMNYWGQGTSVTVSS
B2: H2: humanized anti-IGLV3-21^R110 CAR, VL SEQ ID NO: 7, VH SEQ ID NO: 12, scFv SEQ ID NO: 14 (protein)
scFv: B1 scFv with V194I, V198R, S203T
B3: mAb01-01: murine monoclonal anti-IGLV3-21^R110 antibody, VL SEQ ID NO: 44, VH SEQ ID NO: 45 (antibody, listed as Mus musculus, V domains shown)
VH: QVQLQQSGPGLVQPSQSLSITCTVSGFSLTSYGIHWVRQSPGKGLEWLGVIWRGGGTDSNAAFMSRLSITKDNSKSQVFFKMNSLQADDTAIYYCARSRYDEEESMNYWGQGTSVTVSS
VL: QIVLTQSPASLSASVGETVTITCRASGNIHSYLAWYQQKQGKSPQLLVYNAKTLADGVPSRFSGSGSGTQYSLKINSLQPEDFGSYYCQHFWNTPPTFGAGTKLELK

Legend:
[1] = tested on: OCI-LY1 R110 cell line (OCIR110); experiment: In-vitro cytotoxicity assay (IncuCyte Caspase-3/7), OCI-LY1 R110; format: cell-based, human; conditions: construct 1: IgG4 hinge spacer; construct 2: additional CH2-CH3 spacer
Description: Neoepitope (i.e. cancer-specific peptide) engineered cell line OCI-LY1 R110 expressing the IGLV3-21^R110 light chain as part of a BCR with induced R110 point mutation was generated from OCI-LY1 wt cells. First, OCI-LY1 wt cells were cultivated in RPMI 1640 Medium, GlutaMAX™ Supplement (Thermo Fisher, Cat. 61870044) supplemented with 20% (v/v) FBS (Life Technologies, Cat. 10500064) and 1% (v/v) penicillin-streptomycin (10,000 U/mL) (Thermo Fisher, Cat. 15140122) at 37° C. in a humidified atmosphere including 5% CO2. […]
Target cells seeded at 2×10^4 cells/well in a 96-well plate were co-incubated with effector cells at effector-to-target (E: T) ratio 5:1 in complete CTL medium consisting of RPMI 1640 Medium GlutaMAX™ Supplement (Thermo Fisher, Cat. 61870044) supplemented with 10% (v/v) FBS (Life Technologies, Cat. 10500064), 1% (v/v) penicillin-streptomycin (10,000 U/mL) (Thermo Fisher, Cat. 15140122), 50 μM β-mercaptoethanol (Thermo Fisher, Cat. 31350010) and 50 U/mL IL-2 (StemCell, Cat. 78036.1). CAR T cell mediated tumor cell killing was assessed using the IncuCyte@ Caspase-3/7 Green Reagent for Apoptosis (Sartorius, Cat. 4440) according to the manufacturer's instructions. Read out of dead (-green-fluorescent) target cells was performed on an
IncuCyte@ S3 (Sartorius) after 2 to 16 hours or 4 to 36 hours. The killing graphs were calculated by the IncuCyte@ software (version 2022A). […]

[2] = tested on: wild-type IGLV3-21G110-variant; experiment: FACS binding assay on BCR-expressing TKO cells (germline control); parameters: species or system human; conditions: fluorescently labeled anti-mouse IgG
Source text: (§1) The screening for positive clones was not performed by enzyme linked immunosorbent assay (ELISA) as usual. Since the target structure is a membrane-bound receptor, it is of central importance to validate the binding of the potential antibodies in a cellular system, i.e. while largely preserving the cell physiological states native to this cell type. First, groups of pooled supernatants were examined for binding events using fluorescence activated cell sorting (FACS) analysis. For this purpose different BCR variants were expressed on the surface of a triple knockout (TKO) cell line, which cannot express BCR itself.
(§2) For reconstitution with a ‘BCR of interest’, the corresponding sequence coding for the VH was fused with a human IgM constant segment by polymerase chain reaction (PCR), and heavy (HC) and light (LC) chains were cloned into respective expression vectors each having a CMV promoter. These were introduced into the packaging cell line (Phoenix cell line) by lipofection. After 36 hours of incubation, the virus supernatant was removed and used for spinfection of the TKO cells. BCR expression was determined using anti-IgM and anti-LC antibodies on FACS. For this purpose, some cells were taken and stained with 5 μl antibody each in a total volume of 100 μl in PBS. Both the work to extract the supernatants and the spinfection of the TKO are widely known procedures and known to experts. […]

[3] = biological target: T1, IGHV3-21/IGLV3-21^R110 BCR (Homo sapiens, UniProt P80748); experiment: FACS binding assay on BCR-expressing TKO cells; conditions: fluorescently labeled anti-mouse IgG
T1 construct: a complete light chain (LC) DNA covering IGLV3-21^R110 were synthesized; expressed in transfected cells; host or cells: murine triple knockout (TKO) pro-/pre-B cells, retroviral spinfection
Source text: as §1, §2

T1 sequence (P80748 with tags, fused parts or gaps V22E/Q35K/G42A/V66I/D68Y/S112G): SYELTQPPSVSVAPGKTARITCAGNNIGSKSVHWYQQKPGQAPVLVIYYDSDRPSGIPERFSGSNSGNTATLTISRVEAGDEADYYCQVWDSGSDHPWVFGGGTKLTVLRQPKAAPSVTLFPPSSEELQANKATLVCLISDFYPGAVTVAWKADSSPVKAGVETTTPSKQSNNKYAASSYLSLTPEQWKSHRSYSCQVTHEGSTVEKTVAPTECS
Sequence of wild-type IGLV3-21G110-variant (as listed by the source): as the sequence (P80748 with tags, fused parts or gaps V22E/Q35K/G42A/V66I/D68Y/S112G) above, with R110G counted along it
Sequence of wild-type IGLV3-21G110-variant (P01871 with tags, fused parts or gaps partner): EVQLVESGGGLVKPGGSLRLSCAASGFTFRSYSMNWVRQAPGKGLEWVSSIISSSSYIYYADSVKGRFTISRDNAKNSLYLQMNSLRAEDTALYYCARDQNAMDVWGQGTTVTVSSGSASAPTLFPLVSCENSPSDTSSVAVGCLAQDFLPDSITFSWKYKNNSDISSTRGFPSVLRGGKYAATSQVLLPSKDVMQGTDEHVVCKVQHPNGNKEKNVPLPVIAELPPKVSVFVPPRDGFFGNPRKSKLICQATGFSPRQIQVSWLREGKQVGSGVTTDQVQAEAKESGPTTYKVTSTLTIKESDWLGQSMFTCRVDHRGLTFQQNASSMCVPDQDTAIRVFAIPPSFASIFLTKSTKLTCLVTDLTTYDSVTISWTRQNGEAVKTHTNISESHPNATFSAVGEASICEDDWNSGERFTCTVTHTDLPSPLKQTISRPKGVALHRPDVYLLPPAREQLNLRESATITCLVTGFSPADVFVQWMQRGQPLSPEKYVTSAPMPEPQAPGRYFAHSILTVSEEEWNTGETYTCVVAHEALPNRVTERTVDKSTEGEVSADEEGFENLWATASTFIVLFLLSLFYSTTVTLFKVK
Sequence of wild-type IGLV3-21G110-variant (P11911 29-220 partner): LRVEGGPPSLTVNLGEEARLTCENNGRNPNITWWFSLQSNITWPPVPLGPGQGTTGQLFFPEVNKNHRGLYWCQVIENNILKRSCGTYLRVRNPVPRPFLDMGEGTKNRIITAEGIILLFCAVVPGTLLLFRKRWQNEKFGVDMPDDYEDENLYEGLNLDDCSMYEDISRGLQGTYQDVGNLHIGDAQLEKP
Sequence of wild-type IGLV3-21G110-variant (P15530 26-228 partner): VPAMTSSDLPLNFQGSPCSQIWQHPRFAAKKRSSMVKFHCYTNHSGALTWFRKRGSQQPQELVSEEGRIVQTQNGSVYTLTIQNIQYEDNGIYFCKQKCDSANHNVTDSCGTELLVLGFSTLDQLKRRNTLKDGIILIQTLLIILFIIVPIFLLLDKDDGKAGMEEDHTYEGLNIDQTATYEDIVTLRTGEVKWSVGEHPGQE

Row | Molecule | killing capacity, CAR construct 1 versus CAR construct 2 [1] | binding to wild-type IGLV3-21G110-variant [2] | binding to IGLV3-21^R110-BCRs [3]
1 | B1 | remarkably higher in CAR construct 1 than in CAR construct 2 |  | 
2 | B2 | remarkably higher in CAR construct 1 than in CAR construct 2 |  | 
3 | B3 |  | without any detectable binding | high specificity and cross-reactivity
